Tested on: K4 kissing-loop RNA reporter
Experiment: apparent KD of K4 kissing-loop reporter; higher = weaker reporter binding
Details: Eterna round: R107
Description: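 RNA-MaP round R107: designed RNA switches with theophylline, tryptophan, arginine or FMN aptamers are transcribed on-chip within common flanks. They are titrated with a labelled K4 kissing-loop RNA reporter in RNA-MaP buffer (100 mM Tris pH 7.5, 80 mM KCl, 4 mM MgCl2), without ligand or with the indicated ligand. Median apparent KD per design.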

[1] = input ligand: theophylline 20 uM
[2] = input ligand: tryptophan 2.4 mM
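Also: bound reporter read as fluorescence of individual clusters on recovered sequencing chips by microscopy, with normalized cluster intensities fitted with a binding model.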

Sequence | apparent KD of K4 kissing-loop reporter (input ligand: FMN 200 uM) [nM] | apparent KD of K4 kissing-loop reporter (input ligand: arginine 13.2 mM) [nM] | apparent KD of K4 kissing-loop reporter (input ligand: none) [nM] | apparent KD of K4 kissing-loop reporter [1] [nM] | apparent KD of K4 kissing-loop reporter [2] [nM]
AGUGAUGUUGAGUGAUGUUAGUGAAGUGAUCGAGGACCGGUACGGCCGCCACUCGAGUGAUGAGUGAGUGAUGUUUGUUUAGUGA [hhbmullin] | 168 | 74.4 | 113 | 120 | 78.2
AGUGAUGUUGAGUUAUCUUAGUGAAGUGAUCGAGGACCGGUACGGCCGCCACUCGAGUGAUGAGUGAGUGAUGUUUGUUUAGUGA [zzymullin] | 546 | 431 | 549 | 593 | 311
AGUGAUGUUUUUUUUAAGAGUGAUGUUUUUCGAGGACCGGUACGGCCGCCACUCGAGUGAGGAGUGCGGUGGUGAGAUGUUGAGU [oomullin] | 549 | 466 | 677 | 589 | 519
AGUGAUGUUUUUUUUAAGAGUGAUGUUUUUCGAGGACCGGUACGGCCGCCACUCGAGUGAUGAGUGAGGUGUGGUGAUGUUUAGU [#09 K4 Tryptophan A Exclusion] | 287 | 279 | 351 | 316 | 205
AGUGAUGUUUUUUUUAAGAGUGAUGUUUUUCGAGGACCGGUACGGCCGCCACUCGAGUGAUGAGUGAGGUGUUGUGAUGUUUAGU [cxmullin] | 436 | 314 | 458 | 504 | 248
AGUGCACUGUCAGGAUAUAUACAGUGAUGUUGUGUAUGUCAGCAAGUCAAAGACUUGCUAUUUUGUAUAGAAGGGACUGUGUACA [whbob_Ex_FMNB__2th222] | 574 | 258 | 294 | 276 | 286
AGUGCAUGCUCGGCCGCCACUCAGAAGAAGAUAGAAGUGAUGUUUCUAAUGAUGAGAAUAAUAAAGAGGACCGGGAGAUGUGCAA [First try] | 122 | 125 | 149 | 164 | 116
AGUGGACGUGUCCGGAGUGAUGUUCCGGAUACCAGACACGAAAGUGUCCCUUGGCAGCAGGAGUGAUGUUCCGGCGUUCACUAAA [Omei KL Theo A Exc B v3] | 351 | 223 | 314 | 347 | 274
AGUGUCAGUGAUGUUGAGAAGAUGGGUACUAAGGAUAUGCGGCGAUGCAGAAGGUAGAAUGAUUAGUUCGCAUGUUAUGAGGGAU [theeternabot_exclusion_KL_FMN_A_46] | 484 | 364 | 573 | 487 | 336
AUAAACUUGCAGUGAUGUUGCAAGUAAGACUAGGAUAUCAGGAAACUGAGAAGGAGUCAUCUCCUUCAAACAUCACUAUGAAGGA [[K1]-[K2]-[F1]-[F2]-[F]'-[K]'-[F]''_Design5] | 507 | 263 | 384 | 413 | 331
AUAAACUUGCAGUGAUGUUGCAAGUAAGACUAGGAUAUCAGGAAGCUGAGAAGGAGUCAUCUCCUUCAAACAUCACUAUGAAGGA [whbob_SS_FMNA__2th177] | 413 | 245 | 289 | 328 | 253
AUAAAUAAUAAUGACUGAGAGUUUGGUGAGCGAGGACCGGUACGGCCGCCACUCGUACAUGAGUGAUGUUCUUGUAUGAGUCAGA [KL-XTryp-A6 #analogue] | 127 | 97.6 | 95.6 | 97.6 | 105
AUAAUCUUGCAGUGAUGUUGCAAGAAAGCUCAGGAUAUCAGGAAACUGAGAAGGGAGCAUCCUGAGCACUUGCAACAGUGCUCAG [[K1]-[K2]-[F1]-[F2]-[F]'-[K]'-[F]''_Design3] | 127 | 100 | 296 | 288 | 117
AUACGCGAUAGCGUAUAUAACAAAUCAGAAGGAGCGUGGAAGUACACAGGUAGGUCGCUGAAAAUAGGACUAGUGAUGUUAGUUA [JR_Nu_SSArginiA_Sub026] | 211 | 193 | 232 | 172 | 166
AUAGGAGUGAUGUUCCUUAGUCCCUCCGAUACCAGUAUGGAAACAUACCCUUGGCAGCGGUGGACCGCAGAUUAGGAAACUAGUC [Theophylline A K4 4] | 232 | 238 | 216 | 231 | 206
AUAGGAGUGAUGUUCCUUAGUUUCUCCGAUACCAGUAUGGAAACAUACCCUUGGCAGCGGUAAACCGCAGAUUAGGAAACUAGUC [Theophylline A K4 2] | 308 | 332 | 324 | 241 | 297
AUAGGCAUAGCCCGAGUGAUGUUCGACGAUACCAGCCUCGAUAGAGGCCCUUGGCAGCGUAAAUGAUCAUGAAGCCAAGGAAUAA [whbob_Ex_Theo_A_th69] | 342 | 313 | 442 | 353 | 313
AUAUACCAGUGAUGUUGGUAUACUAUCGAUACCAGUAGAUACCAAUACCCUUGGCAGCGAUAAGACCGUACUGUAGCCAGUACUU [Theo A SS t4] | 250 | 191 | 255 | 340 | 225
AUAUAGUGAUGUUAUAUAAUAAUCUCUGAUACCAGUCAUUUAGAAGACCCUUGGCAGCAGCUAUAUAUAGGGAAACAAUACAUAA [AstrosExytheA#1] | 739 | 649 | 709 | 925 | 491
AUAUUGGUUGAGAGUGAUGUUCCUUGUGUUCGAGGACCGGUACGGCCGCCACUCGGGUAGAAAAUAAAAGAUGUGUUUGAUUUUU [BDazzled - #13 SS Tryptophan A] | 237 | 101 | 125 | 185 | 212
AUCACAGUGAUGUUGUGAUAUACUUCAGAUACCAGACUAGUGCUAGUCCCUUGGCAGCUGAACUCAGCAGCACCACUAGCACUCG [Theo A Ex t6a] | 153 | 130 | 139 | 144 | 134
AUCACAGUGAUGUUGUGAUAUGAUUCAGAUACCAGACUAGUGCUAGUCCCUUGGCAGCUGAACUCAGCAGCACCACUAGCACUCU [Theo A Ex t6] | 157 | 132 | 148 | 166 | 149

Sequence | apparent KD of K4 kissing-loop reporter (input ligand: FMN 200 uM) [nM] | apparent KD of K4 kissing-loop reporter (input ligand: arginine 13.2 mM) [nM] | apparent KD of K4 kissing-loop reporter (input ligand: none) [nM] | apparent KD of K4 kissing-loop reporter [1] [nM] | apparent KD of K4 kissing-loop reporter [2] [nM]
AUCGAGCCCAUCGGUGAGUCAUUAGUUGAUACCAGAGCUAUUGGCCUCCCUUGGCAGCAAGUAAACCUGUUUAGUGAUGUUAAAC [theeternabot_exclusion_KL_Theo_A_15] | 178 | 150 | 168 | 162 | 157
AUCGGGAAUACGGCCGCCACUAUAGAGGCGACUACAUACCACCACAGUGAUGUUGUGCUGACCAGUAGGACCGGGUAAAAUCGAU [theeternabot_exclusion_KL_Trp_B_49] | 817 | 594 | 871 | 726 | 672
AUCGUUGUCUGAGGAUAUCGAUUAACUGUAGUGAUGUUACAGAAAAUUCAUAUAAUAUUUUCUAUUCGAGAAGGCAGACUACGUA [JR_ExcFMNB_Sub017] | 167 | 135 | 144 | 139 | 144
AUCGUUGUCUGAGGAUAUCGGUUAACUGUAGUGAUGUUACAGAAAAUUCAUAUUAUAUUUUCUAUUCGAGAAGGCAGACUACGUA [JR_Nu3_ExcFMNB_Sub019] | 203 | 141 | 160 | 145 | 157
AUCUCGGUAUCAGAUACCAGACUAUCGAUACCGAGUGUAUCGGGUAGUGAUGUUACCAUAGUCCCUUGGCAGCUGGUAGUUCAUA [Theo B SS t9c] | 256 | 249 | 261 | 280 | 213
AUCUUGCAUUCGGCCGCCACUAUCGUGCAGUGAUGUUGCGCGAGUGACGCGUCCCGCAGUGCAGGUAGGACCGGGAAUGAUACCC [Erlazaar] | 128 | 119 | 123 | 112 | 125
AUGAGGAACAGUGAUCCUACUCCAUGGGAAGGAGCGUAGGAUACUACAGGUAGGUCGCCCAGUGAUGUUGGGCGCGUGUUCUUGG [Ermaar] | 116 | 114 | 115 | 161 | 113
AUGAGGAACAGUGAUCCUAUUCCAUGGGAAGGAGCGUAGGAUACUACAGGUAGGUCGCCCAGUGAUGUUGGGCGCGUGUUCUUGG [Soririza] | 120 | 112 | 113 | 140 | 117
AUGCGCGCGGCGGCCGCCACUCGCAUGAGAGUGAUGUUCUCGCCGUGACCGUAAGGUCGCGGUGUGAGGACCGGGCCGGGCUGCG [#2 Same State - Tryptophan B Attempt #22 (HarryS)] | 197 | 71.5 | 69.7 | 213 | 321
AUGCGCGUGCGAUGCAAAUCGCACGCGCAUCGAGGACCGGUACGGCCGCCACUCGCUCGCGCCGAGUGAUGUUCGGCCGGCGAAC [#2 Same State - Tryptophan A Attempt #6 (HarryS)] | 258 | 243 | 269 | 327 | 565
AUGCGUUGCACGGCCGCCACUGAUAUUAUGCUUCAGGAUGCUUCUGAAAGUGAUGUUUUCAGAUCCAGGACCGGGUGCCAAGAUU [theeternabot_sameState_KL_Trp_B_17] | 104 | 88.2 | 98.3 | 92.3 | 98.8
AUGCUUUUAAUAACACUAUAUACAACUGAAGGAGCGACAAUAAAGUCAGGUAGGUCGCAGAAUAAAUGAGUGAUGUUCAUUUUUA [JR_ExcArginiA_Sub009] | 82.2 | 130 | 92.2 | 119 | 63.9
AUGGGCACGUCGGCCGCCACUACACGGUCCCGCGAGGGCCAGUGAUGUUGGUCGACGUGCCGUUGUAGGACCGGGACGUGGCUGU [Teatondi] | 125 | 54.5 | 79 | 103 | 83.3
AUGGGUCCACGAAGGAGCGCCGUGGAGUGAUGUUCCGGUUAGAUCCAGUGAUGUUGGGCCCGGCAGGUAGGUCGCGUGGACUCAU [Exclusion Arginine B GF 23] | 720 | 522 | 586 | 729 | 533
AUGUCUGAUAGCAGUGAUGUUGCUUCGGAUACCAGACGAGAUCAUGUCCCUUGGCAGCUGACACGGCACGUGCUAGGUUAGAUGG [whbob_Ex_Theo_A_th73] | 121 | 115 | 111 | 94.7 | 115
AUGUCUGAUAGCAGUGAUGUUGCUUCGGAUACCAGACGCGAUCAUGUCCCUUGGCAGCUGACACGGCACGUGCUAGGUUAGAUGG [whbob_Ex_Theo_A_th74] | 123 | 94.5 | 105 | 112 | 95.9
AUUAAUAACAGAGGAUAUGCAUUUUUAUUAUUUUUAAAUAUUAAAUGCAGUGAUGUUGCAUAUUAAGCAGAAGGCUGAUUUAUUU [JR_SSFMNB_Sub012] | 117 | 271 | 211 | 279 | 147
AUUAAUAACUGAGGAUAUCGAAAUUAUGUAGUGAUGUUACUGUAAAUUCAAAUUUUCAUUUCUUAACGAGAAGGCAGAAUAAUUA [JR_ExcFMNB_Sub012] | 173 | 185 | 115 | 200 | 86.8
AUUAAUUUCAGAGGAUAUCGUAUUAAUAUUUUAUCUAUCUAUAUAUGCAGUGAUGUUGCAAUAAUUCGAGAAGGCUGAUUUAUAA [JR_ExcFMNB_Sub009] | 93.9 | 101 | 52.3 | 91.8 | 47.7
AUUCAGAUCUGAAGGAGCGCGUUAAGUCAAUGCUUCAUAGAGCAGUGAUGUUGCUCUGAAACGCAGGUAGGUCGCAGAUCUGACC [Arg B SS t17] | 295 | 250 | 325 | 288 | 287
AUUCAUUUCAGAGGAUAUCGAAGGAGAGUGAUGUUCUCCCAUAGCCCAGUGAUGUUGGAAGCUAUUCGAGAAGGCUGUGGGUGGA [Same State FMN B GF 26] | 178 | 270 | 271 | 222 | 216

— the supplement of paper PMC9170038
